Experimental data reported in the supplement of paper PMC9112550, “Optimization of the antimicrobial peptide Bac7 by deep mutational scanning” (BMC Biology, 2022).

tested on: Escherichia coli TOP10; test: shrunken log2 fold change of peptide-encoding DNA abundance (4.5 h post-induction vs induction); higher = less antimicrobial activity (less host growth inhibition); details: time post-induction: 4.5 h; library: site-saturation at positions 5, 18, 19, 20
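Also: peptides expressed intracellularly from a pBAD plasmid library in pooled LB shake-flask culture, induced with 0.3% L-arabinose, DNA abundance read by NGS, three biological replicates, DESeq2 with apeglm shrinkage.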

Point of comparison: RRIRNRPPRLPRPRPRPVAQPRP, “shrunken log2 fold change” value 0.089. Against it:
- RRIRYRPPRLPRPRPRPLPHPRP — lower, -0.375
- RRIRCRPPRLPRPRPRPAQDPRP — higher, 0.289
- RRIRRRPPRLPRPRPRPMDCPRP — within 0.2 log units, 0.00462
- RRIRIRPPRLPRPRPRPLYQPRP — lower, -0.904
- RRIRPRPPRLPRPRPRPTYTPRP — lower, -0.272
- RRIRTRPPRLPRPRPRPMWMPRP — lower, -0.177
- RRIRYRPPRLPRPRPRPWGWPRP — within 0.2 log units, -0.0384
- RRIRYRPPRLPRPRPRPGVWPRP — within 0.2 log units, 0.171
- RRIRHRPPRLPRPRPRPMYRPRP — within 0.2 log units, -0.0948
- RRIRERPPRLPRPRPRPQPYPRP — lower, -0.43
- RRIRKRPPRLPRPRPRPMCTPRP — within 0.2 log units, -0.0805
- RRIRYRPPRLPRPRPRPSIRPRP — lower, -0.116
- RRIRYRPPRLPRPRPRPSGPPRP — lower, -0.395
- RRIRNRPPRLPRPRPRPAGYPRP — within 0.2 log units, -0.0215
- RRIRWRPPRLPRPRPRPNADPRP — higher, 0.466
- RRIRQRPPRLPRPRPRPSVKPRP — within 0.2 log units, -0.0362
- RRIRTRPPRLPRPRPRPSHPPRP — lower, -0.416
- RRIRMRPPRLPRPRPRPEREPRP — higher, 1.76
- RRIRGRPPRLPRPRPRPCDNPRP — within 0.2 log units, 0.0785
- RRIRGRPPRLPRPRPRPLALPRP — higher, 0.665
- RRIRIRPPRLPRPRPRPLHIPRP — lower, -1.21
- RRIRPRPPRLPRPRPRPPIYPRP — within 0.2 log units, 0.0772
- RRIRGRPPRLPRPRPRPMFHPRP — within 0.2 log units, 0.074
- RRIRKRPPRLPRPRPRPVMRPRP — higher, 0.74
- RRIRERPPRLPRPRPRPNNVPRP — lower, -0.28
- RRIRARPPRLPRPRPRPPCDPRP — higher, 0.506
- RRIRYRPPRLPRPRPRPDQWPRP — within 0.2 log units, -0.103
- RRIRQRPPRLPRPRPRPYFHPRP — lower, -0.563
- RRIRGRPPRLPRPRPRPMTPPRP — higher, 1.07
- RRIRQRPPRLPRPRPRPDPWPRP — within 0.2 log units, 0.161
- RRIRDRPPRLPRPRPRPAEKPRP — within 0.2 log units, 0.0328
- RRIRLRPPRLPRPRPRPREGPRP — higher, 0.966
- RRIRIRPPRLPRPRPRPRIEPRP — lower, -0.246
- RRIRNRPPRLPRPRPRPRAEPRP — within 0.2 log units, 0.103
- RRIRGRPPRLPRPRPRPKVAPRP — higher, 0.538
- RRIRFRPPRLPRPRPRPRHHPRP — lower, -0.116
- RRIRSRPPRLPRPRPRPRRKPRP — within 0.2 log units, 0.207
- RRIRIRPPRLPRPRPRPQFRPRP — lower, -0.234
- RRIRFRPPRLPRPRPRPAGKPRP — within 0.2 log units, 0.279
- RRIRRRPPRLPRPRPRPANFPRP — within 0.2 log units, -0.0416
- RRIRRRPPRLPRPRPRPIYMPRP — lower, -0.138
- RRIRNRPPRLPRPRPRPVHSPRP — lower, -0.245
- RRIRPRPPRLPRPRPRPHLEPRP — lower, -0.122
- RRIRARPPRLPRPRPRPCTVPRP — lower, -0.26
- RRIRFRPPRLPRPRPRPHYFPRP — lower, -0.161
- RRIRCRPPRLPRPRPRPHIHPRP — lower, -0.759
- RRIRFRPPRLPRPRPRPGMEPRP — within 0.2 log units, 0.0216
- RRIRLRPPRLPRPRPRPTEDPRP — within 0.2 log units, -0.0182
- RRIRTRPPRLPRPRPRPGHEPRP — within 0.2 log units, 0.0552
- RRIRRRPPRLPRPRPRPVMKPRP — within 0.2 log units, -0.025
- RRIRCRPPRLPRPRPRPANPPRP — within 0.2 log units, -0.057
- RRIRVRPPRLPRPRPRPAWIPRP — within 0.2 log units, 0.0483
- RRIRERPPRLPRPRPRPGQTPRP — within 0.2 log units, -0.0328
- RRIRPRPPRLPRPRPRPMHYPRP — lower, -0.336
- RRIRYRPPRLPRPRPRPQVMPRP — within 0.2 log units, -0.0105
- RRIRGRPPRLPRPRPRPDYTPRP — higher, 0.343
- RRIRMRPPRLPRPRPRPNAPPRP — within 0.2 log units, -0.0273
- RRIRARPPRLPRPRPRPSVWPRP — within 0.2 log units, -0.0231
- RRIRQRPPRLPRPRPRPLYIPRP — lower, -0.659
- RRIRRRPPRLPRPRPRPQSEPRP — within 0.2 log units, 0.0256
- RRIRDRPPRLPRPRPRPYPFPRP — lower, -0.671
- RRIRDRPPRLPRPRPRPNCKPRP — within 0.2 log units, 0.135
- RRIRARPPRLPRPRPRPPHRPRP — higher, 0.931
- RRIRCRPPRLPRPRPRPYNHPRP — lower, -0.416
- RRIRSRPPRLPRPRPRPTEWPRP — within 0.2 log units, 0.00483
- RRIRDRPPRLPRPRPRPWFIPRP — lower, -0.157
- RRIRPRPPRLPRPRPRPNPRPRP — higher, 0.596
- RRIRHRPPRLPRPRPRPYSCPRP — within 0.2 log units, -0.0837
- RRIRMRPPRLPRPRPRPYPSPRP — within 0.2 log units, -0.0577
- RRIRLRPPRLPRPRPRPPSVPRP — within 0.2 log units, -0.0845
- RRIRIRPPRLPRPRPRPRHPPRP — within 0.2 log units, -0.0642
- RRIRQRPPRLPRPRPRPFINPRP — lower, -0.241
- RRIRGRPPRLPRPRPRPYTSPRP — lower, -0.278
- RRIRMRPPRLPRPRPRPIWIPRP — within 0.2 log units, 0.14
